Source: the supplement of paper PMC9170038

Test system: MS2 coat protein
Assay: apparent KD of MS2 coat protein; higher = weaker reporter binding
Conditions: Eterna round: R107; input ligand: arginine 13.2 mM
Procedure, shortened: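 Apparent KD per design is the median of normalised cluster binding-curve fits. Designed RNA switches transcribed on-chip from Illumina sequencing clusters were titrated with SNAP-549-labelled MS2 coat protein in twofold steps from 0.7 or 1.5 nM to 3 µM, with 0.8–1.5 h down to 10–20 min per step. Buffer: 100 mM Tris-HCl pH 7.5, 80 mM KCl, 4 mM MgCl2, without or with constant ligand.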

| Sequence | apparent KD of MS2 coat protein [nM] |
| --- | --- |
| GUGUACAUGAGGAUCACCCAUGUCGAGUUACGAGGACCGGUACGGCCGCCACUCGGCGGCUCGACACGGAUAGCGGUGCGUUGCU [Exclusion - Tryptophan A] | 18.2 |
| ACAUGAGGAUCACCCAUGUACAUAAGGGAAGGAGCGCGGUGAAACGCAGGUAGGUCGCCCAUAAUAUCUAACAUUAAAUUCAUGU [LeftA3] | 16.8 |
| GGACUAACCAGAAGGAGCGGCACGCAGAAACUGCAAAAUCCUCCACACGAGGAUCACCCGUGUCAGGUAGGUCGCUGGUUAGUCG | 45.8 |
| AUUCCAUUGGUGCAGUUGUUAAAUGGCGAUACCAGCGUGGAAACACGCCCUUGGCAGCGCCAAAACAUGAGGAUCACCCAUGUUA [Havirov] | 32.1 |
| CGAUAGGGUCAAUACCUAAUCAUAUCUGAAGGAGCGUGGAUAUACACAGGUAGGUCGCAGAAUCACAUGAGGAUCACCCAUGUCC [Same State Arginine A GF13] | 60.2 |
| CGGUUUGUGAUGGAUACCAGCAGAGAAAACGUUUAUCCUAACAUGAGGAUCACCCAUGUAUGCCCUUGGCAGCUGUUGUGGGCUG [8.U] | 34.5 |
| GGUCCCGUCGGAAGGAGCGACAUGAGGAUCACCCAUGUCUCCCGUUAUGGGAGUUCUUUAGGUCAGGUAGGUCGCCGGCGGGAGC [#1 Exclusion - Arginine B Attempt #15 (Inspired by Omei)] | 52.4 |
| AAACGCCACGGAAGGAGCGACAUGAGGAUCACCCAUGUAGAUUUGGCGGAUGCACCCUCCUGUCAGGUAGGUCGCCGUGCGAUAA [XArg-B25] | 33.9 |
| GGUUACUCUACGGCCGCCACUGGGCAUGUAAAUAACAUGAGGAUCACCCAUGUGGAAUAAAAUUACAGGACCGGGUAGUGUAACC [Tryptophan B 22] | 105 |
| UGUCAUGGAAACAUGACAGGUUCUACCGGUCGAGGACCGGUACGGCCGCCACUCGAUUGGUGGCACAUGAGGAUCACCCAUGUUA [SS Tryp A #15] | 24.1 |
| GGGUACAUCGCGGCCGCCACUCGUGUAAAUACAUGAGGAUCACCCAUGUCGAUGGAGACAUCGGCGAGGACCGGGUGAUGUACCG | 43.1 |
| AGUGUUAUAACUGAUACCAGACUUUUGCUUAUACAUGAGGAUCACCCAUGUAAAAUGGUUGUCCCUUGGCAGCAGAAAAUACACA [JR_SSTheophyB_Sub007] | 81.6 |
| CCUCAUGUGGUGCUGCACAUGAGAGGUGAUACCAGCAUCGAAAGAUGCCCUUGGCAGCACCAACAUGAGGAUCACCCAUGUAAUA [(M)'-(T)'-(M)''-(T1)-(T2)-(M1)-(M2)_Design1] | 27 |
| UCACAUGAGGAUCACCCAUGUAAAGUUGAAGGAGCGAUCAUUAGGUCAGGUAGGUCGCAACACAUGAGGAUCACCCAUGUUGUCC [DOUBLE!!! :-D] | 25.7 |
| UGAUUGAACGGAAGGAGCGUGAAGAGAGAGAAACAUGAGGAUCACCCAUGUAGAGAGAGAUCACAGGUAGGUCGCCGAGAGAUUG [11.C] | 17.8 |
| AUAACAUGAGGAUCACCCAUGUAAGCAGAUACCAGCUAGGAAACUAGCCCUUGGCAGCUGCAAGGUGAUCCUAGGUAUCUGCAAU [(M1)-(M2)-(T1)-(T2)-(M)'-(T)'_Design6] | 30.4 |
| AAGACGGUCGGAAGGAGCGGUACAUGAGGAUCACCCAUGUACCUCUGGGCAUCCGUAGUGUGCCAGGUAGGUCGCCGAUUGCGGG [Esorbevege] | 12.7 |
| GGCACAUAGUCGGCCGCCACUAGUGGGAAAUGGGAGAACAUGAGGAUCACCCAUGUAUUAUAGCCUAGGACCGGGACUAUGUGCC [Mammoth] | 145 |
| UGUAUGUGAUCUGAUACCAGUCCAACUGGUAAAACCUGAGGAUCACCCGGGUAAAAUUGGGACCCUUGGCAGCAGAUCGCAUACU | 201 |

| Sequence | apparent KD of MS2 coat protein [nM] |
| --- | --- |
| UAUGUCGCCGAAGAUACCAGCCUGGCAAGCAACAUGAGGAUCACCCAUGUAAUUACUUAUGGCCCUUGGCAGCUUCAAAUAGAGC [theeternabot_sameState_MS2_Theo_B_42] | 10.8 |
| UCGGGCAGAGCGGCCGCCACUGUUUGGCAUGCGGAUGAAGGAACAUGAGGAUCACCCAUGUAGAUUAGGACCGGGCUAGCGGAGA [sscsmullin] | 12.1 |
| UCAGUGCAAGGAAGGAGCGGGUACAUGAGGAUCACCCAUGUGCAAGUGGUGAGCGUCCGUGCCCAGGUAGGUCGCCUAGCCUGGU [Quisso] | 56 |
| UAUAAUAACUCGGCCGCCACUGGCACAUGAGGAUCACCCAUGUCUAUAUAUAAUAUAUAGUUGCACAGGACCGGGAGAUAUAUAU [Exclusion - Tryptophan B] | 10.5 |
| AUACAUGAGGAUCACCCAUGUAUAGUUGAAGGAGCGACCAGAGGGUCAGGUAGGUCGCAGCGCAUGAGGUAAGCCCAUGUAUGCU [#1 Exclusion - Arginine A Attempt #16 (Inspired by Pi)] | 22.7 |
| AAUAAUAGGUGAUCCUGACGAGUGGCAUAACGAGGACCGGUACGGCCGCCACUCGAACAUGAGGAUCACCCAUGUAGCCACUCGA [M'-T'-T-MS2-T'' - Design 5.b] | 32 |
| UGCGUACAUGAGGAUCACCCAUGUACUGAAGGAGCGGGAGGCAUCUCAGGUAGGUCGCAGACAUGAGGAUCACCCAUGUAGUGGU [Exclusion Arginine A GF 18] | 16.1 |
| GGUAACUCUACGGCCGCCACUGAACAUGAGGAUCACCCAUGUAAUGUUCAGAUUUUUUUUUUUUACAGGACCGGGUAGUGUUACC [Tryptophan B 4] | 107 |
| UUAGCACAUGAGGAUCACCCAUGUCUCGAUACCAGAUAAGUUCCGAUCCCUUGGCAGCGACAAGCUUGCAAACUGCGACUAUUCU [theeternabot_sameState_MS2_Theo_A_42] | 22.2 |
| UUAGUAACGACGGCCGCCACUGGAUAUGAACAUGAGGAUCACCCAUGUAGAGAUCCUAGAAUAAACAGGACCGGGUCUGAUAAUA [Exclusion Tryptophane B GF 2] | 17.9 |
| AUCGGCAGAAAAGAUACCAGAGUAAUACACAACAUGAGGAUCACCCAUGUACGGACAAUCCUCCCUUGGCAGCUUGUAACAGUAU [theeternabot_sameState_MS2_Theo_B_32] | 37.4 |
| CACAUGAGGAUCACCCAUGUCUGAACUGAAGGAGCGCUAAAUAAGGCAGGUAGGUCGCGGAAUCGUGUGUGCAUAUGCACACGCG [9.U] | 17.8 |
| AAAAGAGGUGGAAGGAGCGGGAGACAUGAGGAUCACCCAUGUGAAGUGACGAAAGGAUCAUCCCAGGUAGGUCGCCAUGUCGAAA [csstmullin] | 5.43 |
| ACGACGCAUAGUGAUACCAGUAGAACAUGAGGAUCACCCAUGUCUGUGACGCACCACCUCUGCCCUUGGCAGCACUAUGCGUCAG [SSTheo B #8] | 22.3 |
| UGACAUUGCUCAGAUACCAGACAUGAGGAUCACCCAUGUGCCAACGUACAAAUAAUAAAUGUCCCUUGGCAGCUGAGCAAUGUCU [TheoBX 15 #MS2Left #Theo2] | 16.2 |
| ACCCUAGCGAUCGCUCGCUAGGGUGCGGAUACCAGCGAGGUCCAUCGCCCUUGGCAGCCGAACAUGAGGAUCACCCAUGUCGGUA [#1 Same State - Theophylline A Attempt #19 (HarryS)] | 10.1 |
| GGACUAACCAGAAGGAGCGACGCGCAGAAACUGCAAAUUCCUCCACACGAGGAUCACCCGUGUCAGGUAGGUCGCUGGUUAGUCG | 16.5 |
| ACGCUGAUUGAUUACAAUCAGCGAAAAGAUACCAGUGGGUAAUCCCACCCUUGGCAGCUUAAACUUGAGGAUCACCCAGGUGGUA [TheoAS 17 #MS2Right #BothOrNeither #AlternativeMS2] | 88.2 |
| AUACAUGAGGAUCACCCAUGUUAUAGUGAAGGAGCGACAUUUAGGUCAGGUAGGUCGCACUAUUGAAUUAUUAUUCUCAGUUCUU [JR_ExcArginiA_Sub019] | 14.2 |

Same assay, conditions: Eterna round: R107; input ligand: none

| Sequence | apparent KD of MS2 coat protein [nM] |
| --- | --- |
| GUGUACAUGAGGAUCACCCAUGUCGAGUUACGAGGACCGGUACGGCCGCCACUCGGCGGCUCGACACGGAUAGCGGUGCGUUGCU [Exclusion - Tryptophan A] | 33.2 |
